# PMC4347857, “Characterization of the Mycobacterial Acyl-CoA Carboxylase Holo Complexes Reveals Their Functional Expansion into Amino Acid Catabolism” (PLoS Pathogens, 2015)
# B1: M. tuberculosis AccD1 (Rv2502c), hexa-histidine tagged (natural protein)
# chain: MTTPSIAIAPSFADEHRRLVAELNNKLAAAALGGNERARKRHVSRGKLLPRERVDRLLDPGSPFLELAPLAAGGMYGDESPGAGIITGIGRVSGRQCVIVANDATVKGGTYYPMTVKKHLRAQEVALQNMLPCIYLVDSGGAFLPRQDEVFPDREHFGRIFYNQATMSAKGIPQVAAVLGSCTAGGAYVPAMSDEAVIVREQGTIFLGGPPLVKAATGEIVSAEELGGGDLHSRTSGVTDHLADDDEDALRIVRAIADTFGPCEPAQWDVRRSVEPKYPQAELYDVVPPDPRVPYDVHEVVVRIVDGSEFSEFKAKYGKTLVTAFARVHGHPVGIVANNGVLFSESALKGAHFIELCDKRKIPLLFLQNIAGFMVGRDYEAGGIAKHGAKMVTAVACARVPKLTVVIGGSYGAGNYSMCGRAYSPRFLWMWPNARISVMGGEQAASVLATVRGEQLSAAGTPWSPDEEEAFKAPIRAQYEDQGNPYYSTARLWDDGIIDPADTRTVVGLALSLCAHAPLDQVGYGVFRM
# notes: also called CT β-subunit of the M. tuberculosis MCC; not shown: His6, N-terminal, kept
# B2: M. tuberculosis AccA1 (Rv2501c) (natural protein)
# chain: MFDTVLVANRGEIAVRVIRTLRRLGIRSVAVYSDPDVDARHVLEADAAVRLGPAPARESYLDIGKVLDAAARTGAQAIHPGYGFLAENADFAAACERARVVFLGPPARAIEVMGDKIAAKNAVAAFDVPVVPGVARAGLTDDALVTAAAEVGYPVLIKPSAGGGGKGMRLVQDPARLPEALVSARREAMSSFGDDTLFLERFVLRPRHIEVQVLADAHGNVVHLGERECSLQRRHQKVIEEAPSPLLDPQTRERIGVAACNTARCVDYVGAGTVEFIVSAQRPDEFFFMEMNTRLQVEHPVTEAITGLDLVEWQLRVGAGEKLGFAQNDIELRGHAIEARVYAEDPAREFLPTGGRVLAVFEPAGPGVRVDSSLLGGTVVGSDYDPLLTKVIAHGADREEALDRLDQALARTAVLGVQTNVEFLRFLLADERVRVGDLDTAVLDERSADFTARPAPDDVLAAGGLYRQWALARRAQGDLWAAPSGWRGGGHMAPVRTAMRTPLRSETVSVWGPPESAQVQVGDGEIDCASVQVTREQMSVTISGLRRDYRWAEADRHLWIADERGTWHLREAEEHKIHRAVGARPAEVVSPMPGSVIAVQVESGSQISAGDVVVVVEAMKMEHSLEAPVSGRVQVLVSVGDQVKVEQVLARIKD
# notes: also called BC α-subunit of the M. tuberculosis MCC
# Legend:
# [1] = biological target: B2; experiment: pull-down; settings: partners not purified
# [2] = biological target: the molecule itself; experiment: negative-stain electron microscopy
Binder,binding result [1],stoichiometry N [2]
B1,binds,6
B2,–,3
